From patent WO2025026282A1 (dated 2025)

Legend:
[1] = target: T1, Human PD-L1 (human, UniProt Q9NZQ7 19-238, limits assumed); assay: BLI (Octet R8), human PD-L1
T1 construct: Diluted to 2 ug/ml in KB buffer for BLI; construct not described

[2] = target: T2, human CD3 epsilon (human, UniProt P07766 23-126, limits assumed); assay: SPR (Biacore), antigen captured, antibody as analyte
T2 construct: the same molecule is used here for both
T2 sequence (P07766 23-126 limits assumed): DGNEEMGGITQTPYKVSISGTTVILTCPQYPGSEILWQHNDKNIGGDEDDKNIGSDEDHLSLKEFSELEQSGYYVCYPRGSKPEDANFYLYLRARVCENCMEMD

T1 sequence (Q9NZQ7 19-238 limits assumed): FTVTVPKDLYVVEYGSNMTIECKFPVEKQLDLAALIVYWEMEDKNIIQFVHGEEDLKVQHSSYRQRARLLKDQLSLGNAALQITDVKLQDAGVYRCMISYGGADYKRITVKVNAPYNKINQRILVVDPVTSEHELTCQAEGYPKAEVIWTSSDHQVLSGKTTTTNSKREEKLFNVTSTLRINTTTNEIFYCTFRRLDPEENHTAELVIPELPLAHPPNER

B1: 12A69 (other)
chain 1: QAVVTQEPSLTVSPGGTVTLTCRSSTGAVTTSNYANWVQQKPGQAPRGLIGGTNKRAPWTPARFSGSLLGGKAALTLSGAQAEDEADYYCALWYSNLWVFGGGTKLTVLRTVAAQVQLVQSGAEVKKPGSSVKVSCKTSGDTFSSYAISWVRDAPGQCLEWMGGIIPIFGKAHYAQKFQGRVTITADESTSTAYMELSSLRSEDTAVYFCARKFHFVSGSPFGMDVWGQGTTVTVSSASEPKSSDKTHTCPPCPAPPVAGPSVFLFPPKPKDTLMISRTPEVTCVVVDVSQEDPEVKFNWYVDGVEVHNAKTKPREEQFNSTYRVVSVLTVLHQDWLNGKEYKCKVSNKGLPSSIEKTISKAKGQPREPQVYTLPPSRDELTKNQVSLWCLVKGFYPSDIAVEWESNGQPENNYKTTPPVLDSDGSFFLYSKLTVDKSRWQQGNVFSCSVMHEALHNHYTQKSLSLSP
chain 2: EVQLVESGGGLVQPGGSLRLSCAASGFTFTDYYMNWVRQAPGKALEWLGFIRNKVNGDTTEYAASVKGRFTISRDDSKNSLYLQMNSLKTEDTAVYYCARDKGIAYYFDYWGQGTLVTVSSASTKGPSVFPLAPSSKSTSGGTAALGCLVKDYFPEPVTVSWNSGALTSGVHTFPAVLQSSGLYSLSSVVTVPSSSLGTQTYICNVNHKPSNTKVDKKVEPKSCDGGGGSGGGGSEIVLTQSPATLSLSPGERATLSCRASQSVSSYLAWYQKKPGQAPRLLIYDASNRATGIPARFSGSGSGTDFTLTISSLEPEDFAVYYCQQRSNAPTFGCGTKVEIKRTVAAEVQLVESGGGLVQPGGSLRLSCAASGFTFSTYAMNWVRQAPGKGLEWVGRIRSKYNNYATYYADSVKGRFTISRDDSKNSLYLQMNSLRAEDTAVYYCVRHGNFGTSYVSWFAYWGQGTLVTVSS
chain 3: EVQLVESGGGLVQPGGSLRLSCAASGFTFTDYYMNWVRQAPGKALEWLGFIRNKVNGDTTEYAASVKGRFTISRDDSKNSLYLQMNSLKTEDTAVYYCARDKGIAYYFDYWGQGTLVTVSSASTKGPSVFPLAPSSKSTSGGTAALGCLVKDYFPEPVTVSWNSGALTSGVHTFPAVLQSSGLYSLSSVVTVPSSSLGTQTYICNVNHKPSNTKVDKKVEPKSCDKTHTCPPCPAPPVAGPSVFLFPPKPKDTLMISRTPEVTCVVVDVSQEDPEVKFNWYVDGVEVHNAKTKPREEQFNSTYRVVSVLTVLHQDWLNGKEYKCKVSNKGLPSSIEKTISKAKGQPREPQVYTLPPSRDELTKNQVSLSCAVKGFYPSDIAVEWESNGQPENNYKTTPPVLDSDGSFFLVSKLTVDKSRWQQGNVFSCSVMHEALHNRFTQKSLSLSP
chain 4: EIVLTQSPATLSASPGERATLSCRASQSVSYIHWYQQKPGQSPRPWIHGTSNLATGVPARFSGSGSGTDFTLTISSLEPEDAAVYYCQQWSSNLSTFGGGTKVEIKRTVAAPSVFIFPPSDEQLKSGTASVVCLLNNFYPREAKVQWKVDNALQSGNSQESVTEQDSKDSTYSLSSTLTLSKADYEKHKVYACEVTHQGLSSPVTKSFNRGEC
With B1 the Kd [1] was 72.8 nM.

B2: 12A44 (other)
chain 1: QAVVTQEPSLTVSPGGTVTLTCRSSTGAVTTSNYANWVQQKPGQAPRGLIGGTNKRAPWTPARFSGSLLGGKAALTLSGAQAEDEADYYCALWYSNLWVFGGGTKLTVLRTVAAQVQLVQSGAEVKKPGSSVKVSCKTSGDTFSSYAISWVRDAPGQCLEWMGGIIPIFGKAHYAQKFQGRVTITADESTSTAYMELSSLRSEDTAVYFCARKFHFVSGSPFGMDVWGQGTTVTVSSASEPKSSDKTHTCPPCPAPPVAGPSVFLFPPKPKDTLMISRTPEVTCVVVDVSQEDPEVKFNWYVDGVEVHNAKTKPREEQFNSTYRVVSVLTVLHQDWLNGKEYKCKVSNKGLPSSIEKTISKAKGQPREPQVYTLPPSRDELTKNQVSLWCLVKGFYPSDIAVEWESNGQPENNYKTTPPVLDSDGSFFLYSKLTVDKSRWQQGNVFSCSVMHEALHNHYTQKSLSLSP
chain 2: EVQLVESGGGLVQPGGSLRLSCAASGFTFTDYYMNWVRQAPGKALEWLGFIRNKVNGDTTEYAASVKGRFTISRDDSKNSLYLQMNSLKTEDTAVYYCARDKGIAYYFDYWGQGTLVTVSSASTKGPSVFPLAPSSKSTSGGTAALGCLVKDYFPEPVTVSWNSGALTSGVHTFPAVLQSSGLYSLSSVVTVPSSSLGTQTYICNVNHKPSNTKVDKKVEPKSCDGGGGSGGGGSEIVLTQSPATLSLSPGERATLSCRASQSVSSYLAWYQKKPGQAPRLLIYDASNRATGIPARFSGSGSGTDFTLTISSLEPEDFAVYYCQQRSNWPTFGCGTKVEIKRTVAAEVQLVESGGGLVQPGGSLRLSCAASGFTFSTYAMNWVRQAPGKGLEWVGRIRSQYNNYATYYADSVKGRFTISRDDSKNSLYLQMNSLRAEDTAVYYCVRHGNFGTSYVSWFAYWGQGTLVTVSS
chain 3: EVQLVESGGGLVQPGGSLRLSCAASGFTFTDYYMNWVRQAPGKALEWLGFIRNKVNGDTTEYAASVKGRFTISRDDSKNSLYLQMNSLKTEDTAVYYCARDKGIAYYFDYWGQGTLVTVSSASTKGPSVFPLAPSSKSTSGGTAALGCLVKDYFPEPVTVSWNSGALTSGVHTFPAVLQSSGLYSLSSVVTVPSSSLGTQTYICNVNHKPSNTKVDKKVEPKSCDKTHTCPPCPAPPVAGPSVFLFPPKPKDTLMISRTPEVTCVVVDVSQEDPEVKFNWYVDGVEVHNAKTKPREEQFNSTYRVVSVLTVLHQDWLNGKEYKCKVSNKGLPSSIEKTISKAKGQPREPQVYTLPPSRDELTKNQVSLSCAVKGFYPSDIAVEWESNGQPENNYKTTPPVLDSDGSFFLVSKLTVDKSRWQQGNVFSCSVMHEALHNRFTQKSLSLSP
chain 4: EIVLTQSPATLSASPGERATLSCRASQSVSYIHWYQQKPGQSPRPWIHGTSNLATGVPARFSGSGSGTDFTLTISSLEPEDAAVYYCQQWSSNLSTFGGGTKVEIKRTVAAPSVFIFPPSDEQLKSGTASVVCLLNNFYPREAKVQWKVDNALQSGNSQESVTEQDSKDSTYSLSSTLTLSKADYEKHKVYACEVTHQGLSSPVTKSFNRGEC
In the case of B2, the Kd [2] is reported as 118 nM.

B3: 12A46 (other)
chain 1: QAVVTQEPSLTVSPGGTVTLTCRSSTGAVTTSNYANWVQQKPGQAPRGLIGGTNKRAPWTPARFSGSLLGGKAALTLSGAQAEDEADYYCALWYSNLWVFGGGTKLTVLRTVAAQVQLVQSGAEVKKPGSSVKVSCKTSGDTFSSYAISWVRDAPGQCLEWMGGIIPIFGKAHYAQKFQGRVTITADESTSTAYMELSSLRSEDTAVYFCARKFHFVSGSPFGMDVWGQGTTVTVSSASEPKSSDKTHTCPPCPAPPVAGPSVFLFPPKPKDTLMISRTPEVTCVVVDVSQEDPEVKFNWYVDGVEVHNAKTKPREEQFNSTYRVVSVLTVLHQDWLNGKEYKCKVSNKGLPSSIEKTISKAKGQPREPQVYTLPPSRDELTKNQVSLWCLVKGFYPSDIAVEWESNGQPENNYKTTPPVLDSDGSFFLYSKLTVDKSRWQQGNVFSCSVMHEALHNHYTQKSLSLSP
chain 2: EVQLVESGGGLVQPGGSLRLSCAASGFTFTDYYMNWVRQAPGKALEWLGFIRNKVNGDTTEYAASVKGRFTISRDDSKNSLYLQMNSLKTEDTAVYYCARDKGIAYYFDYWGQGTLVTVSSASTKGPSVFPLAPSSKSTSGGTAALGCLVKDYFPEPVTVSWNSGALTSGVHTFPAVLQSSGLYSLSSVVTVPSSSLGTQTYICNVNHKPSNTKVDKKVEPKSCDGGGGSGGGGSEIVLTQSPATLSLSPGERATLSCRASQSVSSYLAWYQKKPGQAPRLLIYDASNRATGIPARFSGSGSGTDFTLTISSLEPEDFAVYYCQQRSNWPTFGCGTKVEIKRTVAAEVQLVESGGGLVQPGGSLRLSCAASGFTFSTYAMNWVRQAPGKGLEWVGRIRSKYNNYATYYADSVKGRFTISRDDSKNSLYLQMNSLRAEDTAVYYCVRHGNFGTSYASWFAYWGQGTLVTVSS
heavy: EVQLVESGGGLVQPGGSLRLSCAASGFTFTDYYMNWVRQAPGKALEWLGFIRNKVNGDTTEYAASVKGRFTISRDDSKNSLYLQMNSLKTEDTAVYYCARDKGIAYYFDYWGQGTLVTVSSASTKGPSVFPLAPSSKSTSGGTAALGCLVKDYFPEPVTVSWNSGALTSGVHTFPAVLQSSGLYSLSSVVTVPSSSLGTQTYICNVNHKPSNTKVDKKVEPKSCDKTHTCPPCPAPPVAGPSVFLFPPKPKDTLMISRTPEVTCVVVDVSQEDPEVKFNWYVDGVEVHNAKTKPREEQFNSTYRVVSVLTVLHQDWLNGKEYKCKVSNKGLPSSIEKTISKAKGQPREPQVYTLPPSRDELTKNQVSLSCAVKGFYPSDIAVEWESNGQPENNYKTTPPVLDSDGSFFLVSKLTVDKSRWQQGNVFSCSVMHEALHNRFTQKSLSLSP
light: EIVLTQSPATLSASPGERATLSCRASQSVSYIHWYQQKPGQSPRPWIHGTSNLATGVPARFSGSGSGTDFTLTISSLEPEDAAVYYCQQWSSNLSTFGGGTKVEIKRTVAAPSVFIFPPSDEQLKSGTASVVCLLNNFYPREAKVQWKVDNALQSGNSQESVTEQDSKDSTYSLSSTLTLSKADYEKHKVYACEVTHQGLSSPVTKSFNRGEC
notes: Kabat position; choice of chain inferred; also called V100C A (12A46)
Work on B3 yielded a Kd [2] of 176 nM.
